Results as given in article PMC10925001 (2024).

Target: covalently-linked IL-2/SD-01 complex (human, UniProt P60568 21-153)
Experiment: SPR

koff: 0.0048 s⁻¹
B1: his-tagged human IL-2Rα (receptor)
chain: ELCDDDPPEIPHATFKAMAYKEGTMLNCECKRGFRRIKSGSLYMLCTGNSSHSSWDNQCQCTSSATRNTTKQVTPQPEEQKERKTTEMQSPMQPVDQASLPGHCREPPPWENEATERIYHFVVGQMVYYQCVQGYRALHRGPAESVCKMTHGKTRWTQPQLICTGEMETSQFPGEEKPQASPEGRPESETSCLVTTTDFQIQTEMAATMETSIFTTEYQ
